The values below come from PMC5109273.

In test [1] the target is TAP (Homo sapiens) (UniProt Q03518). Particulars: cited from earlier work.
Test [2] addresses ICP47-TAP fusion complex with fused ICP47(∆1-11) (UniProt P03170). The test is described as follows: co-IP; HEK293T co-transfected 1:1:5 (TAP1:TAP2:viral factor); solubilised in 2% digitonin; sequential precipitation via SBP tag (streptavidin agarose, biotin elution) and C8 tag (anti-C8 antibody on Dynabeads); co-precipitated mVenus-tagged viral factor quantified by SDS-PAGE and in-gel fluorescence relative to TAP lacking fused ICP47; on ice, pH 7.4.

Sequence of UniProt Q03518 (Q03518 whole entry, chain 1 of 2, the tested form may be a part): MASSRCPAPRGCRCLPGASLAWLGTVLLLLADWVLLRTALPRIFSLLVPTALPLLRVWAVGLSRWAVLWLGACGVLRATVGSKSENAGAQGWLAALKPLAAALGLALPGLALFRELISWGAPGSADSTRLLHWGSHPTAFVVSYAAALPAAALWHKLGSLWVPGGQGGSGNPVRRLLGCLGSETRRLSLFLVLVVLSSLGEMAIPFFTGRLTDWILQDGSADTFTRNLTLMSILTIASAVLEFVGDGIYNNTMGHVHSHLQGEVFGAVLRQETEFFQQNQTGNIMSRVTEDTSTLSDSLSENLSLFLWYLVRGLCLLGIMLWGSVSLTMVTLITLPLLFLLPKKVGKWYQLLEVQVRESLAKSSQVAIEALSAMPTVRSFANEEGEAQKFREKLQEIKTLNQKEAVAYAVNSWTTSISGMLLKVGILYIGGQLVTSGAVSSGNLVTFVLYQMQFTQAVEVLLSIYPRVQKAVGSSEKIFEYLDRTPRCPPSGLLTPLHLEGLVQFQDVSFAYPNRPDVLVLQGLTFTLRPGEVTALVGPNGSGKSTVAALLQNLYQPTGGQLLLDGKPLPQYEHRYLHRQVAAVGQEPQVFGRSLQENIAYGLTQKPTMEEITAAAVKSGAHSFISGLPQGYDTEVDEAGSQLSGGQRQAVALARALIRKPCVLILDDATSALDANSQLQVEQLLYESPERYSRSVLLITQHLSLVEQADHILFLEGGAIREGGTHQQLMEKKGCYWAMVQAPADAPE
Sequence of UniProt Q03518 (Q03519 whole entry, chain 2 of 2, further chain, the tested form may be a part): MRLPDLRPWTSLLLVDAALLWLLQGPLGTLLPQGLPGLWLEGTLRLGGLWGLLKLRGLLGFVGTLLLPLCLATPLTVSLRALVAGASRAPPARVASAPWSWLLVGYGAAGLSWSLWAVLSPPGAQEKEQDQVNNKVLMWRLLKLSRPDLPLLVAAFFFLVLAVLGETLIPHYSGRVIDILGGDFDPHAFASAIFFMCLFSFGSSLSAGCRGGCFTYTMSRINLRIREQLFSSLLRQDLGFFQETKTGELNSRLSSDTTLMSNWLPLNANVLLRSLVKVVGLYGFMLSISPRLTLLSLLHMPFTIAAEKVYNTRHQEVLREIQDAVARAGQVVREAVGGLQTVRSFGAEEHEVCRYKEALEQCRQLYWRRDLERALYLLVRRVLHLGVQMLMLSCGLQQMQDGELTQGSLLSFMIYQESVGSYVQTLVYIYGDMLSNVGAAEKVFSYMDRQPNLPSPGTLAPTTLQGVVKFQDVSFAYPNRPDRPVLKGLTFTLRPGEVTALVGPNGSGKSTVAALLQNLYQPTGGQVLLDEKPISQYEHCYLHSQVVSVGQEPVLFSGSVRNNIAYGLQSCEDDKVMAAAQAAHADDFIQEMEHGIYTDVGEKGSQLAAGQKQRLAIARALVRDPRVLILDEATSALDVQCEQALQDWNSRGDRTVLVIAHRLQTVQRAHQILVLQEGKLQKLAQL

A word on the Kd: it is a measure of binding affinity in units of concentration. With ICP47 (from UniProt P03170), the dissociation constant (Kd) in test [1] was 50 nM.

B1: non-fused full-length ICP47(1-88) with C-terminal mVenus-myc-His10 tag (natural protein)
chain: MSWALEMADTFLDTMRVGPRTYADVRDEINKRGREDREAARTAVHDPERPLLRSPGLLPEIAPNASLGVAHRRTGGTVTDSPRNPVTR
As to B1, in test [2], the co-precipitated viral factor relative to the TAP complex lacking fused ICP47 is 100%.
